Results on 1 substance are retold here after paper PMC2064081.

The target in this assay is MIM/IMD-L (IRSp53/MIM domain of mouse missing-in-metastasis, longer splice variant) (mouse) (UniProt Q8R1S4). Put plainly: SPR. For orientation: In SPR one partner is held on a chip, and binding of the other changes the refractive index at the surface.
Sequence of MIM/IMD-L (IRSp53/MIM domain of mouse missing-in-metastasis, longer splice variant) (mouse) (Q8R1S4 1-250, change not shown): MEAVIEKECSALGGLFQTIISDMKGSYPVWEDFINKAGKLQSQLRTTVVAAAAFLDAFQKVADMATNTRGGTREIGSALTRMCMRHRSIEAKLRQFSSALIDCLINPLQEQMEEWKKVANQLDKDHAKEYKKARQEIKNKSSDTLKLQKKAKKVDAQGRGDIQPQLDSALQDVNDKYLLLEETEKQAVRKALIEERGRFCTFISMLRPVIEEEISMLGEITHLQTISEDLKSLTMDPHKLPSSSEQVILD

“GST-Rac (V12), dominant-active Rac (from UniProt P63000 1-192) (natural protein)” displayed an equilibrium binding level relative to MIM/IMD-S of 10 to 15%.
